{"source": "patent US20200230057A1", "about": "“Pharmaceutical Compositions, Methods for Preparation using Lipid Vesicle Particles of Defined Size, and Uses Thereof” (IMMUNOVACCINE TECHNOLOGIES INC., priority 2017, published 2020)", "data": [{"assay": "HPLC peptide recovery before and after freeze-drying", "settings": "set specification 0.40-0.60 mg/mL for neoantigens, 0.2-0.3 mg/mL for A16L", "description": "The composition prepared as described in Example 4, containing 14 neoantigens and the A16L T-helper peptide, was subjected to HPLC analysis to evaluate the peptide stability before and after freeze-drying.\nExperimental Conditions: • IPQC Solutions: Dilute the IPQC solutions with Methanol and then with Mobile Phase A, e.g. as follows: • 100 mg In-Process Testing Solution • +450 μL Methanol, mix • +450 μL Mobile Phase A, mix • Mix by vortexing. Samples containing lipids will be slightly hazy. Dilution factor=10×. • Lyophilisates (for Release and Stability Testing): Solubilize the lyophilisate with Ultrapure lab water. Add 3-4 glass beads and vortex vigorously for 1 minute to assure complete homogenization. Dilute the solution with Methanol and subsequently with Mobile Phase A, e.g. as follows: • 100 mg In-Process Testing Solution • +450 μL Methanol, mix • +450 μL Mobile Phase A, mix • Mix by vortexing. The sample preparations will be slightly hazy. Dilution factor=20×.\nThe dried preparations were solubilized in water for HPLC analysis. T=0 is the day in which the samples were removed from the freeze-dryer. T=1M and T=3M are 1 month and 3 months after T=0, respectively, with the dried preparation having been stored at −20° C.", "values": [{"sequence": "CGTAFFINFIAIYHHASRAIPFGTMVA (Mut36) [Mut 36]", "Peptide concentration relative to set specification": "consistently outside the set specification"}, {"sequence": "IPSGTTILNCFHDVLSGKLSGGSPGVP (Mut29A) [Mut 29a]", "Peptide concentration relative to set specification": "outside the set specification"}, {"sequence": "VVDRNPQFLDPVLAYLMKGLCEKPLAS (Mut17) [Mut 17]", "Peptide concentration relative to set specification": "outside the set specification"}]}]}
